The text below walks through data of publication PMC2199927.

Where only a bound is given, the exact number is not on record here.

This assay has as its target c-myc-tagged Sec8 (S. cerevisiae) (UniProt P32855). As to the kind of experiment: co-IP.

B1: Sec4 (natural protein)
chain: MSGLRTVSASSGNGKSYDSIMKILLIGDSGVGKSCLLVRFVEDKFNPSFITTIGIDFKIKTVDINGKKVKLQLWDTAGQERFRTITTAYYRGAMGIILVYDVTDERTFTNIKQWFKTVNEHANDEAQLLLVGNKSDMETRVVTADQGEALAKELGIPFIESSAKNDDNVNEIFFTLAKLIQEKIDSNKLVGVGNGKEGNISINSGSGNSSKSNCC
The molecule B1 gave a percent of the total Sec4 associated (limit of detection) of less than 0.07%.
